Reference: article PMC3756526 (2013)

Key:
[1] = target: ASB9–EloBC ternary complex (ankyrin-repeat and SOCS-box protein 9, Elongin B, Elongin C) (human) (UniProt Q96DX5); assay: differential scanning fluorimetry; 2 μM ASB9–EloBC with Cul5NTD at 8, 4, 2, 1, 0.5 and 0.25 μM; Sypro Orange; 50 mM HEPES, 100 mM NaCl, pH 7.5, 1 mM TCEP; 37 to 95 °C at 1 °C/min
[2] = target: ASB9–EloBC ternary complex (ankyrin-repeat and SOCS-box protein 9, Elongin B, Elongin C) (human) (UniProt Q96DX5); assay: ITC; 303 K; Cul5NTD (450 μM) titrated into ASB9–EloBC (60 μM) in the cell; 50 mM HEPES, 100 mM NaCl, pH 7.5, 1 mM TCEP; one-set-of-sites model
[3] = target: ASB9–EloBC ternary complex (ankyrin-repeat and SOCS-box protein 9, Elongin B, Elongin C) (human) (UniProt Q96DX5); assay: ITC; 298 K; Cullin NTD (450 μM) titrated into ASB9–EloBC (60 μM) in the cell; 50 mM HEPES, 100 mM NaCl, pH 7.5, 1 mM TCEP; one-set-of-sites model
[4] = target: ASB9–EloBC ternary complex (ankyrin-repeat and SOCS-box protein 9, Elongin B, Elongin C) (human) (UniProt Q96DX5); assay: ITC; 288 K; Cul5NTD (450 μM) titrated into ASB9–EloBC (60 μM) in the cell; 50 mM HEPES, 100 mM NaCl, pH 7.5, 1 mM TCEP; one-set-of-sites model
[5] = target: ASB9–EloBC ternary complex (ankyrin-repeat and SOCS-box protein 9, Elongin B, Elongin C) (human) (UniProt Q96DX5); assay: native MS; nanoESI–MS of the reconstituted ASB9–EloBC–Cul5NTD sample at three concentrations; 500 mM ammonium acetate, pH 7.0
[6] = target: T1, Cullin 5 N-terminal domain (residues 1–386, V341R, L345D) (human, UniProt Q93034 1-386, V341R | L345D); assay: ITC; 293 K
[7] = target: T1, Cullin 5 N-terminal domain (residues …); assay: ITC; 303 K
[8] = target: T1, Cullin 5 N-terminal domain (residues …); assay: ITC; 288 K

ΔTm [1] [°C] | dH [2] [kcal/mol] | Kd [3] [nM] | dH [3] [kcal/mol] | stoichiometry N [3] | dH [4] [kcal/mol] | stoichiometry N [5] | Kd [6] [nM] | Kd [7] [nM] | Kd [8] [nM] | Molecule
4.6 | -8.3 | 220 | -6 | 1 | -3 | 1 |  |  |  | Cullin 5 N-terminal domain (residues 1–386, V341R, L345D) (from UniProt Q93034 1-386) (domain or fragment)
 |  |  |  |  |  |  | 119 | 61 | 282 | ASB9–EloBC ternary complex (ankyrin-repeat and SOCS-box protein 9, Elongin B, Elongin C) (complex) chain 1: SDWSPMHEAAIHGHQLSLRNLISQGWAVNIITADHVSPLHEACLGGHLSCVKILLKHGAQVNGVTADWHTPLFNACVSGSWDCVNLLLQHGASVQPESDLASPIHEAARRGHVECVNSLIAYGGNIDHKISHLGTPLYLACENQQRACVKKLLESGADVNQGKGQDSPLHAVARTASEELACLLMDFGADTQAKNAEGKRPVELVPPESPLAQLFLEREGPPSLMQLCRLRIRKCFGIQQHHKITKLVLPEDLKQFLLHL chain 2: MDVFLMIRRHKTTIFTDAKESSTVFELKRIVEGILKRPPDEQRLYKDDQLLDDGKTLGECGFTSQTARPQAPATVGLAFRADDTFEALCIEPFSSPPELPDVMKPQDSGSSANEQAVQ chain 3: MYVKLISSDGHEFIVKREHALTSGTIKAMLSGPGQFAENETNEVNFREIPSHVLSKVCMYFTYKVRYTNSSTEIPEFPIAPEIALELLMAANFLDC
